Here are results for one substance from article PMC6640053.

In this data set the test system is Lrp (C-terminal His6 as stated; cloned NdeI/XhoI in pET28a) (Escherichia coli K-12 (strain FW102 genomic DNA)). Nature of the data set: EMSA. As to conditions: no effector; apparent overall Kd; four complexes B1-B4; 10 mM Tris-HCl pH 7.4, 5 mM MgCl2, 250 mM KCl, 2.5 mM CaCl2, 0.5 mM DTT, 2.5% glycerol, 37 C 25 min; L-Arg and/or L-Leu when indicated; excess sonicated …. (In general: Mobility shift assays separate free from complexed probe on a gel.)

In the case of artP control region, the Kd is 200 nM.
